In patent publication US20130195871A1 (AbbVie / Abbott, published 2013):

Columns and labels:
[1] = target: T1, ErbB3 on the cell surface (human, UniProt P21860 20-1342); test: flow cytometry on cells, 2 ug/mL, C-terminal VD
T1 construct: whole, on cells
Protocol: (§1) Stable cell lines overexpressing a cell-surface antigen of interest or human tumor cell lines were harvested from tissue culture flasks and resuspended in phosphate buffered saline (PBS) containing 5% fetal bovine serum (PBS/FBS). Prior to staining, human tumor cells were incubated on ice with (100 μl) human IgG at 5 μg/ml in PBS/FCS. 1-5×10⁵ cells were incubated with antibody or DVD-Ig (2 μg/mL) in PBS/FBS for 30-60 minutes on ice. […] After 30 minutes incubation on ice, cells were washed twice and resuspended in PBS/FBS. Fluorescence was measured using a Becton Dickinson FACSCalibur (Becton Dickinson, San Jose, Calif.).
(§2) The geometric mean is the n root of the multiplication product of n fluorescent signals (a1×a2×a3 . . . an). With log-transformed data the geometric mean is used to normalize the weighting of the data distribution.

EGFR on the cell surface [2] = target: T2, EGFR on the cell surface (human, UniProt P00533 25-1210); test: flow cytometry on cells, 2 ug/mL, N-terminal VD
T2 construct: whole, on cells
Protocol: as §1, §2

EGFR on the cell surface [3] = target: T2, EGFR on the cell surface; test: flow cytometry on cells, 2 ug/mL, C-terminal VD
Protocol: as §1, §2

[4] = target: T1, ErbB3 on the cell surface; test: flow cytometry on cells, 2 ug/mL, N-terminal VD
Protocol: as §1, §2

EGFR on the cell surface [5] = target: T2, EGFR on the cell surface; test: flow cytometry on cells, 2 ug/mL
Protocol: as §1, §2
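Note: cells stained for 30 to 60 min on ice.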

| GEO MEAN [1] | GEO MEAN (EGFR on the cell surface [2]) | GEO MEAN [4] | Binder | further results |
| --- | --- | --- | --- | --- |
| 20.6 | 519 |  | DVD2292 (bispecific antibody, DVD-Ig, outer AB400 / inner AB063) VH: EVQLVESGGGLVQPGGSLRLSCAASGFSLTNYGVHWVRQAPGKGLEWLGVGWSGGNTDYNTPFTSRLTINKDNSKNTVYLQMNSLRAEDTAVYYCARALTWYDYEFAYWGQGTLVTVSSASTKGPEVQLVESGGGLVQPGGSLRLSCAASGFTFSIYSMNWVRQAPGKGLEWVSYISSSSSTIYYADSVKGRFTISRDNAKNSLYLQMNSLRDEDTAVYYCARDRGDFDAFDIWGQGTMVTVSS VL: DILLTQSPGTLSLSPGERATLSCRASQSIYTNIHWYQQKPGQAPRLLIKYASESISGIPDRFSGSGSGTDFTLTISRLEPEDFAVYYCQQNLNWPTTFGQGTKLEIKRTVAAPDIQMTQSPSSLSASVGDRVTITCQASQDITNYLNWYQQKPGKAPKLLIYDASNLETGVPSRFSGSGSGTDFTFTISSLQPEDIATYNCQQCENFPITFGQGTRLEIK |  |
|  |  | 80 | DVD2295 (bispecific antibody, DVD-Ig, outer AB116 / inner AB400) VH: EVQLLESGGGLVQPGGSLRLSCAASGFTFSHYVMAWVRQAPGKGLEWVSSISSSGGWTLYADSVKGRFTISRDNSKNTLYLQMNSLRAEDTAVYYCTRGLKMATIFDYWGQGTLVTVSSASTKGPEVQLVESGGGLVQPGGSLRLSCAASGFSLTNYGVHWVRQAPGKGLEWLGVGWSGGNTDYNTPFTSRLTINKDNSKNTVYLQMNSLRAEDTAVYYCARALTWYDYEFAYWGQGTLVTVSS VL: QSALTQPASVSGSPGQSITISCTGTSSDVGSYNVVSWYQQHPGKAPKLIIYEVSQRPSGVSNRFSGSKSGNTASLTISGLQTEDEADYYCCSYAGSSIFVIFGGGTKVTVLGQPKAAPDILLTQSPGTLSLSPGERATLSCRASQSIYTNIHWYQQKPGQAPRLLIKYASESISGIPDRFSGSGSGTDFTLTISRLEPEDFAVYYCQQNLNWPTTFGQGTKLEIK | GEO MEAN (EGFR on the cell surface [3]): 317 |
| 16.6 | 490 |  | DVD2296 (bispecific antibody, DVD-Ig, outer AB400 / inner AB062) VH: EVQLVESGGGLVQPGGSLRLSCAASGFSLTNYGVHWVRQAPGKGLEWLGVGWSGGNTDYNTPFTSRLTINKDNSKNTVYLQMNSLRAEDTAVYYCARALTWYDYEFAYWGQGTLVTVSSASTKGPQVQLQQWGAGLLKPSETLSLTCAVYGGSFSGYYWSWIRQPPGKGLEWIGEINHSGSTNYNPSLKSRVTISVETSKNQFSLKLSSVTAADTAVYYCARDKWTWYFDLWGRGTLVTVSS VL: DILLTQSPGTLSLSPGERATLSCRASQSIYTNIHWYQQKPGQAPRLLIKYASESISGIPDRFSGSGSGTDFTLTISRLEPEDFAVYYCQQNLNWPTTFGQGTKLEIKRTVAAPDIEMTQSPDSLAVSLGERATINCRSSQSVLYSSSNRNYLAWYQQNPGQPPKLLIYWASTRESGVPDRFSGSGSGTDFTLTISSLQAEDVAVYYCQQYYSTPRTFGQGTKVEIK |  |
| 15 | 618 |  | DVD2294 (bispecific antibody, DVD-Ig, outer AB400 / inner AB116) VH: EVQLVESGGGLVQPGGSLRLSCAASGFSLTNYGVHWVRQAPGKGLEWLGVGWSGGNTDYNTPFTSRLTINKDNSKNTVYLQMNSLRAEDTAVYYCARALTWYDYEFAYWGQGTLVTVSSASTKGPEVQLLESGGGLVQPGGSLRLSCAASGFTFSHYVMAWVRQAPGKGLEWVSSISSSGGWTLYADSVKGRFTISRDNSKNTLYLQMNSLRAEDTAVYYCTRGLKMATIFDYWGQGTLVTVSS VL: DILLTQSPGTLSLSPGERATLSCRASQSIYTNIHWYQQKPGQAPRLLIKYASESISGIPDRFSGSGSGTDFTLTISRLEPEDFAVYYCQQNLNWPTTFGQGTKLEIKRTVAAPQSALTQPASVSGSPGQSITISCTGTSSDVGSYNVVSWYQQHPGKAPKLIIYEVSQRPSGVSNRFSGSKSGNTASLTISGLQTEDEADYYCCSYAGSSIFVIFGGGTKVTVL |  |
|  |  |  | AB400 (antibody, V domains shown, parent antibody) VH: EVQLVESGGGLVQPGGSLRLSCAASGFSLTNYGVHWVRQAPGKGLEWLGVGWSGGNTDYNTPFTSRLTINKDNSKNTVYLQMNSLRAEDTAVYYCARALTWYDYEFAYWGQGTLVTVSS VL: DILLTQSPGTLSLSPGERATLSCRASQSIYTNIHWYQQKPGQAPRLLIKYASESISGIPDRFSGSGSGTDFTLTISRLEPEDFAVYYCQQNLNWPTTFGQGTKLEIKR | GEO MEAN (EGFR on the cell surface [5]): 439 |
|  |  | 135 | DVD2297 (bispecific antibody, DVD-Ig, outer AB062 / inner AB400) VH: QVQLQQWGAGLLKPSETLSLTCAVYGGSFSGYYWSWIRQPPGKGLEWIGEINHSGSTNYNPSLKSRVTISVETSKNQFSLKLSSVTAADTAVYYCARDKWTWYFDLWGRGTLVTVSSASTKGPEVQLVESGGGLVQPGGSLRLSCAASGFSLTNYGVHWVRQAPGKGLEWLGVGWSGGNTDYNTPFTSRLTINKDNSKNTVYLQMNSLRAEDTAVYYCARALTWYDYEFAYWGQGTLVTVSS VL: DIEMTQSPDSLAVSLGERATINCRSSQSVLYSSSNRNYLAWYQQNPGQPPKLLIYWASTRESGVPDRFSGSGSGTDFTLTISSLQAEDVAVYYCQQYYSTPRTFGQGTKVEIKRTVAAPDILLTQSPGTLSLSPGERATLSCRASQSIYTNIHWYQQKPGQAPRLLIKYASESISGIPDRFSGSGSGTDFTLTISRLEPEDFAVYYCQQNLNWPTTFGQGTKLEIK | GEO MEAN (EGFR on the cell surface [3]): 106 |
|  |  | 135 | DVD2293 (bispecific antibody, DVD-Ig, outer AB063 / inner AB400) VH: EVQLVESGGGLVQPGGSLRLSCAASGFTFSIYSMNWVRQAPGKGLEWVSYISSSSSTIYYADSVKGRFTISRDNAKNSLYLQMNSLRDEDTAVYYCARDRGDFDAFDIWGQGTMVTVSSASTKGPEVQLVESGGGLVQPGGSLRLSCAASGFSLTNYGVHWVRQAPGKGLEWLGVGWSGGNTDYNTPFTSRLTINKDNSKNTVYLQMNSLRAEDTAVYYCARALTWYDYEFAYWGQGTLVTVSS VL: DIQMTQSPSSLSASVGDRVTITCQASQDITNYLNWYQQKPGKAPKLLIYDASNLETGVPSRFSGSGSGTDFTFTISSLQPEDIATYNCQQCENFPITFGQGTRLEIKRTVAAPDILLTQSPGTLSLSPGERATLSCRASQSIYTNIHWYQQKPGQAPRLLIKYASESISGIPDRFSGSGSGTDFTLTISRLEPEDFAVYYCQQNLNWPTTFGQGTKLEIK |  |
